Patent US5851983A, “Elastase inhibitory polypeptide and process for production thereof by recombinant gene technology” (Teijin Limited, priority 1987, dated 1998)

Legend:
[1] = target: T1, polymorphonuclear leukocyte elastase from human sputum (Homo sapiens, UniProt P08246); experiment: Thermal stability (Example 14); assay type: physicochemical; details: 50 mM Tris-HCl (pH 7.8), 50° C. for 2 hours
T1 construct: Polymorphonuclear leukocyte elastase from human sputum (EPC Co; Funakoshi Yakuhin); purchased EPC Co. (via Funakoshi Yakuhin); host or cells: human sputum
T1 sequence (P08246 30-267): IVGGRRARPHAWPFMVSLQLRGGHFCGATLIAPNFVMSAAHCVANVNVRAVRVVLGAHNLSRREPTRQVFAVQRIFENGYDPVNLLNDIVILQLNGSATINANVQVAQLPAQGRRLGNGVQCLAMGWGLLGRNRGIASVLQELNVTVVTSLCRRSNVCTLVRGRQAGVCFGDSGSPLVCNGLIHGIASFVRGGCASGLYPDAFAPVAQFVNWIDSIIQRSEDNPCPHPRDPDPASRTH
Method: After a solution of an active-type (Asn^55 -Ala^107) SLPI fragment polypeptide in 50 mM Tris-HCl (pH 7.8) was treated at 50° C. for 2 hours, the inhibitory activity on polymorphonuclear leukocyte elastase from human sputum was measured.

[2] = target: T2, polymorphonuclear leucocyte elastase from human sputum (Homo sapiens, UniProt P08246); experiment: Treatment with polymorphonuclear leucocyte elastase from human sputum (Examples 27, 30); assay type: in vitro ADME; details: 37° C.; N-terminal sequencing of SDS-PAGE bands
T2 construct: Polymorphonuclear leukocyte elastase from human sputum (EPC Co; Funakoshi Yakuhin); purchased EPC Co. (via Funakoshi Yakuhin); host or cells: human sputum
T2 sequence (P08246 30-267): T1 sequence (P08246 30-267)
Method: Polymorphonuclear leucocyte elastase from human sputum (EPC, Funakoshi Yakuhin) and SLPI were separately dissolved in a buffer (0.1M HEPES, 0.1M NaCl, 0.1% PEG 6000, pH 7.5) and the elastase solution was added to the SLPI solution, and the mixture was incubated at 37° C. Samples were taken as time elapsed, and to each sample were added Tris-HCl buffer (pH 6.8), SDS, 2-mercaptolethanol, glycerol, and Coomassie Brilliant Blue to final concentrations of 50 mM, 4 w/v %, 2 v/v %, 12 v/v % and 0.01 w/v % respectively. The mixture was subjected to SDS-polyacrylamide gel electrophoresis using Tricine (Sigma) as a polar buffer (Schagger, H., Anal. Biochem. 166, 368, 1987). After the electrophoresis, the gel was stained with Coomassie Brilliant Blue G-250, and decoloured with 50% (v/v) methanol/10% (v/v) acetic acid. […]
(3) Next, polypeptides thus generated were electrically transferred to a membrane (Immobilon-p^SQ Millipore) using a Milli Blot-SDE apparatus (Millipore). […] After drying, relevant bands were cut out, and the peptide was cleaved from the N-terminal using an Applied Biosystems Protein-Sequencer (Applied Biosystems; 477A), and after PTH-conversion, the resulting amino acid derivatives were analyzed by a PTH-Amino acid analyzer (Applied Biosystems, 120A) to determine the N-terminal amino acid sequence. […]

Substance: (Asn^55 -Ala^107) SLPI: polypeptide having an amino acid sequence starting with the 55th Asn and ending at the 107th Ala of SLPI (NPTRRKPGKCPVTYGQCLMLNPPNFCEMDGQCKRDLKCCMGMCGKSCVSPVKA)
- elastase inhibitory activity after heat treatment (thermal stability) [1]: maintained at the same level
- selective cleavage sites with elastase from human sputum [2]: cleaved at the site between Thr^57 -Arg^58
